Columns and labels:
[1] = ABTS radical cation assay; type: biochemical
Description: FIG. 4: RoxP antioxidant activity under adverse conditions. The ability of RoxP to reduce ABTS radical cations, denoted by a decrease in absorbance at 734 nm, was tested in multiple settings. Different concentrations of recombinant RoxP (rRoxP) (0.2-3.2 μM) in sodium phosphate buffer (20 mM, pH 7.4) (A), rRoxP (2.7 μM) incubated with salt solutions (B), pre-heated rRoxP (2.7 μM) incubated for 20 min in temperatures ranging from RT to 98° C. and allowed to cool down to ambient temperature prior to activity measurements (C), or rRoxP (2 μM) stored at room temperature for up to 2 weeks (D) were added to a solution of pre-formed ABTS radicals and the absorbance recorded after 30 sec.
The reduction of pre-formed ABTS radical cations in the presence of RoxP was analysed using a spectrophotometric assay previously described by Re et al. (1999 Free Radic Biol Med 26:1231-1237). 2,2′-azinobis(3-ethylbenzothiazoline-6-sulfonic acid) diammonium salt (ABTS) (Sigma-Aldrich) was initially dissolved in ddH2O to a concentration of […]. Potassium persulfate (Merck KGaA, Darmstadt, Germany) was subsequently added to a final concentration of 2.45 mM and the resulting solution kept dark and incubated overnight at RT. Formed ABTS radicals were diluted with PBS (pH 7.4) until reaching an absorbance of approximately 0.7 at 734 nm. Antioxidants (1.7 μM) were added (1:9 v/v) and the absorbance spectrum 500 to 900 nm recorded after 30 sec.

[2] = Lipid hydroperoxide assay in UV irradiated and non-irradiated plasma; type: biochemical; details: 300 μg RoxP in 500 μl blood, plasma both irradiated (UVA/UVB) and non-irradiated
Description: Hydroperoxides react with Fe^2+ ions to produce Fe^3+ ions which are detected using thiocyanate ion as chromogen. Lower abundance of Fe^3+ ions results in lowered absorbance, indicating lower level of lipid hydroperoxides in irradiated plasma.
Blood was collected in EDTA tubes. Samples containing 500 μl blood+150 μl RoxP (300 μg RoxP), or 500 μl blood+150 μl PBS, were subjected to irradiation:
UVA—irradiation 3×5000 μJ/cm^2; tubes were rotated between irradiation steps; or
Controls having composition identical to the samples, but not irradiated, were included in the experiment.
The blood samples were centrifuged at 1000×g, plasma was collected and frozen at −80° C.
Lipid hydroperoxides were quantified using lipid hydroperoxide assay kit (Cayman Chemical, item no. Item No. 705002).

[3] = RoxP interaction with coproporphyrin III (absorbance curves); type: binding; details: 1 mg/ml RoxP (100 μl) with 50 μg Coproporphyrin
Description: 1 mg/ml RoxP (100 μl) was mixed with 50 μg Coproporphyrin (10 μl) and total volume was adjusted to 290 μl with PBS. Absorbance was measured at different wavelengths. The absorbance curves indicate binding of coproporphyrin III by RoxP (see FIG. 26).

[4] = Lyophilisation of RoxP; type: physicochemical; details: RoxP dissolved in water, absence of further excipients
From the text: Lyophilisation of proteins is also a well-established procedure in the art and typically employs an aqueous solution of the protein to be lyophilised, optionally admixed with one or more suitable lyophilisation excipients, such as trehalose, sucrose, raffinose, maltodextrin, mannitol, and/or dextran. […] The inventors have additionally observed that mannitol, and particularly 2-6% w/v, preferably 2-5% w/v, more preferably 2-4% w/v, or even more preferably 2-3% w/v mannitol (relative to the volume of the solution to be lyophilised) was especially advantageous for production of stable cake and preservation of RoxP activity.

[5] = Singlet Oxygen Sensor Green assay with UV-exposed porphyrins; type: biochemical; details: 1 μM Coproporphyrin III or Protoporphyrin IX, 10 min UV lamp, varying amounts of RoxP
Description: The Singlet Oxygen Sensor Green dye was dissolved in Methanol and added in PBS buffer to reach a final concentration of 0.4 μM. This solution was distributed in a clear 96 well plate. To the wells 1 μM Coproporphyrin III, or 1 μM Protoporphyrin IX was added. Then varying amounts of RoxP were added. Each condition was set up as 4 replicas. Two of the replicas were covered by aluminium foil during the exposure, while two wells were exposed for 10 min to a UV lamp. After exposure, the fluorescence of the Singlet Oxygen Sensor Green dye was read out indicating the amount of singlet oxygen generated.

[6] = Ferrozine assay; type: biochemical; details: incubation 17 hours
Description: The reagents used in the ferrozine assay included 100 μl of 50 mM iron ammonium dodecahydrate, 100 μl 2 mM ferrozine in H2O, and RoxP (50 μl) resulting in various RoxP concentrations indicated in the graph, diluted from a stock solution of 2 mg/ml RoxP in PBS. Incubation was Incubation 17 hours.

B1: RoxP: radical oxygenase of Propionibacterium acnes, secreted antioxidant protein of C. acnes; SEQ ID NO: 1 for strain KPA171202 (protein)
chain: MFVQIAASLAAASSIALGIPGAATPIDESQLPVGPQVSVTDSAQHTGPFAASSPLTITVKPGAPCVRADGYQESMVTRVLDDKGHQVWTGTFDESKLIGGTGLGTATFHVGSPAAAFNFHGSERTTYRTLSYCAYPHYVNGTRERLSQVSVKTFMVDPALN
modifications: Cutibacterium acnes
[1]; RoxP 2 mg/ml 10 μl, FMN/FDN 1 mM 1 μl or 3 μl, especially FDN
  reduction of ABTS radical when FMN/FDN was added: increased reduction
[1]; rRoxP 2 μM stored at room temperature for up to 2 weeks
  activity after long-term storage at room temperature: able to endure
[1]; rRoxP 2.7 μM incubated with salt solutions
  antioxidant activity in presence of CaCl2: loss of activity
[1]; rRoxP 2.7 μM pre-heated 20 min, RT to 98° C., cooled before measurement
  temperature endured without any significant loss of activity: above 70 °C
[1]; rRoxP 2.7 μM, physiological concentrations of NaCl
  antioxidant activity in presence of NaCl: withstood
[1]; rRoxP 0.2-3.2 μM, sodium phosphate buffer 20 mM pH 7.4
  reducing activity on ABTS radical cations: concentration-dependent reducing activity
[2]
  lipid hydroperoxide levels: reduced
[3]
  binding of coproporphyrin III: binding
[4]
  preservation of RoxP activity after lyophilisation: satisfactorily preserved the activity
[5]
  generation of radicals formed through the porphyrins (singlet oxygen): efficiently inhibited
[6]
  reduction of Fe^3+ to Fe^2+: confirmed reduction of Fe^3+ to Fe^2+

From patent US20220000762A1, “COMPOSITIONS FOR TREATING OXIDATIVE STRESS-ASSOCIATED SKIN DISEASES AND SKIN AGEING AND DIAGNOSIS OF OXIDATIVE STRESS-ASSOCIATED SKIN DISEASES” (priority 2019, published 2022)
